Source: publication PMC3072105 (Nature Communications, 2011)

How the values were obtained:
[1] = target: full-length KvAP-T225C (Aeropyrum pernix); experiment: cross-linking
[2] = target: T1, KvAP channel from Aeropyrum pernix, wild type (Aeropyrum pernix, UniProt Q9YDF8 14-295); experiment: electrophysiology
T1 sequence (looked up): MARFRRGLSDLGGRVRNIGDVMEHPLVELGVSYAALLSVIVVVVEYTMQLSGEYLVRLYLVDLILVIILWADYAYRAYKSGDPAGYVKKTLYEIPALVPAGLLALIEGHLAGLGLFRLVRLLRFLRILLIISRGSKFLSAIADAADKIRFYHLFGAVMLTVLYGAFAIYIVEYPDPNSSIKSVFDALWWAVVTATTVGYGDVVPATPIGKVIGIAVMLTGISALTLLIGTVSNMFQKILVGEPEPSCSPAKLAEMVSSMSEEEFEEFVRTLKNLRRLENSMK

Molecule | stoichiometry N [1] | Kd [2] [µM]
full-length KvAP-T225C (natural protein) | 4 | 
GNHAEIYSNHHMMSHVGGGR [synthetic φD peptide] |  | 21.2 ± 3.5
